From paper PMC13276077

Experiments:
Experiment in all cases: EMSA
[1] = molecular target: MeCP2 full-length, e2 isoform (Homo sapiens) (UniProt P51608); conditions: EMSA: 20 mM HEPES pH 7.5, 75 mM NaCl, 125 mM KCl, 50 uM EDTA, 2.5 mM beta-mercaptoethanol, 5% glycerol, BSA, 1.58 uM 47 bp competitor DNA (absent in free DNA …)
[2] = molecular target: MeCP2 R133G R133G (Homo sapiens) (UniProt P51608); conditions: apparent, competitor DNA, EMSA: 20 mM HEPES pH 7.5, 75 mM NaCl, 125 mM KCl, 50 uM EDTA, 2.5 mM beta-mercaptoethanol, 5% glycerol, BSA, 1.58 uM 47 bp competitor DNA (absent in free DNA …)
MeCP2 MBD (Homo sapiens) = MeCP2 MBD (Homo sapiens) (UniProt P51608); conditions: EMSA: 20 mM HEPES pH 7.5, 75 mM NaCl, 125 mM KCl, 50 uM EDTA, 2.5 mM beta-mercaptoethanol, 5% glycerol, BSA, 1.58 uM 47 bp competitor DNA (absent in free DNA …)
[3] = apparent, no competitor DNA, meCpG at -1

## ATGGAACACATTGCACAGGATGTATATATCTGACACGTGCCTGGAGACTAGGGAGTAATCCCCTTGGCGGTTAAAACGCGGGGGACAGCGCGTACGTGCGTTTAAGCGGTGCTAGAGCTGTCTACGACCAATTGAGCGGCCTCGGCACCGGGATTCTCCAGGGCGGCCGCGTATT (double strand) [15-N601-15 nucleosome 81 meCpA]
[1]; apparent, H1.0 1-97 prebound, competitor DNA, linker meCpA 81 bp from dyad
  Kd: 0.382 µM
[1]; apparent, H1.0 25-97 prebound, competitor DNA, linker meCpA 81 bp from dyad
  Kd: 0.295 µM

## ATGGAACACATTGCACAGGATGTATATATCTGACACGTGCCTGGAGACTAGGGAGTAATCCCCTTGGCGGTTAAAACGCGGGGGACAGCGCGTACGTGCGTTTAAGCGGTGCTAGAGCTGTCTACGACCAATTGAGCGGCCTCGGCACCGGGATTCTCCAGGGCGGCCGCGTATT (double strand) [15-N601-15 nucleosome -1 meCpG]
[2]; meCpG at -1
  Kd: 0.522 µM
[1]; meCpG at -1
  Kd: 0.13 µM
MeCP2 MBD (Homo sapiens); meCpG at -1
  Kd: 0.812 µM

## ATGGAACACATTGCACAGGATGTATATATCTGACACGTGCCTGGAGACTAGGGAGTAATCCCCTTGGCGGTTAAAACGCGGGGGACAGCGCGTACGTGCGTTTAAGCGGTGCTAGAGCTGTCTACGACCAATTGAGCGGCCTCGGCACCGGGATTCTCCAGGGCGGCCGCGTATT (double strand) [15-N601-15 nucleosome -61 meCpG]
[2]; meCpG at -61 (GGCACCGGGATT)
  Kd: 0.534 µM
[1]; meCpG at -61 (GGCACCGGGATT)
  Kd: 0.137 µM
MeCP2 MBD (Homo sapiens); meCpG at -61 (GGCACCGGGATT)
  Kd: 0.809 µM

## CAGGATGTATATATCTGACACGTGCCTGGAGACTAGGGAGTAATCCCCTTGGCGGTTAAAACGCGGGGGACAGCGCGTACGTGCGTTTAAGCGGTGCTAGAGCTGTCTACGACCAATTGAGCGGCCTCGGCACCGGGATTCTCCA (double strand) [N601 nucleosome core particle -1 meCpG]
[1]; [3]
  Kd: 0.0442 µM
MeCP2 MBD (Homo sapiens); [3]
  Kd: 0.0507 µM

## CGGTACCTCGCGAATGCATCTAATGGAACACATTGCACAGGATGTATATATCTGACACGTGCCTGGAGACTAGGGAGTAATCCCCTTGGCGGTTAAAACGCGGGGGACAGAACGCCGGTGCGTTTAAGCGGTGCTAGAGCTGTCTACGACCAATTGAGCGGCCTGCGCACAGGGATTCTCCAGGGCGGCCGCGTATTGGATCCCGAGCC (double strand) [37-N601(mod)-27 nucleosome -6 meCpG]
[1]; meCpG at -6
  Kd: 0.0574 µM

## CGGTACCTCGCGAATGCATCTAATGGAACACATTGCACAGGATGTATATATCTGACACGTGCCTGGAGACTAGGGAGTAATCCCCTTGGCGGTTAAAACGCGGGGGACAGAACGCCGGTGCGTTTAAGCGGTGCTAGAGCTGTCTACGACCAATTGAGCGGCCTGCGCACAGGGATTCTCCAGGGCGGCCGCGTATTGGATCCCGAGCC (double strand) [37-N601(mod)-27 nucleosome -56 meCpG]
[1]; meCpG at -56
  Kd: 0.0558 µM

## CGGTACCTCGCGAATGCATCTAATGGAACACATTGCACAGGATGTATATATCTGACACGTGCCTGGAGACTAGGGAGTAATCCCCTTGGCGGTTAAAACGCGGGGGACAGAACGCCGGTGCGTTTAAGCGGTGCTAGAGCTGTCTACGACCAATTGAGCGGCCTGCGCACAGGGATTCTCCAGGGCGGCCGCGTATTGGATCCCGAGCC (double strand) [37-N601(mod)-27 nucleosome unmethylated]
[1]
  Kd: 0.0821 µM

## CGGTACCTCGCGAATGCATCTAATGGAACACATTGCACAGGATGTATCCGGCTGACACGTGCCTGGAGACTAGGGAGTAATCCCCTTGGCGGTTAAAACGCGGGGGACAGAGCGTACGTGCGTTTAAGCGGTGCTAGAGCTGTCGCGCCCCAATTGAGCGGCCTCGGCACAGGGATTCTCCAGGGCGGCCGCGTATTGGATCCCGAGCC (double strand) [37-N601(mod2)-27 nucleosome +61 meCpG]
[1]; meCpG at +61
  Kd: 0.062 µM

## CGGTACCTCGCGAATGCATCTAATGGAACACATTGCACAGGATGTATCCGGCTGACACGTGCCTGGAGACTAGGGAGTAATCCCCTTGGCGGTTAAAACGCGGGGGACAGAGCGTACGTGCGTTTAAGCGGTGCTAGAGCTGTCGCGCCCCAATTGAGCGGCCTCGGCACAGGGATTCTCCAGGGCGGCCGCGTATTGGATCCCGAGCC (double strand) [37-N601(mod2)-27 nucleosome -36 meCpG]
[1]; meCpG at -36
  Kd: 0.0708 µM

## CGGTACCTCGCGAATGCATCTAATGGAACACATTGCACAGGATGTATCCGGCTGACACGTGCCTGGAGACTAGGGAGTAATCCCCTTGGCGGTTAAAACGCGGGGGACAGAGCGTACGTGCGTTTAAGCGGTGCTAGAGCTGTCGCGCCCCAATTGAGCGGCCTCGGCACAGGGATTCTCCAGGGCGGCCGCGTATTGGATCCCGAGCC (double strand) [37-N601(mod2)-27 nucleosome unmethylated]
[1]
  Kd: 0.0919 µM

## GAGCCACAAAACCGGCGACGCTCACGGGTGCCCAGTTCGCGCGCCCACCTACCGTGTGAAGTCGTCACTCGGGCTTCTAAGTACGCTTAGCGCACGGTAGAGCGCAATCCAAGGCTAACCACCGTGCATCGATGTTGAAAGAGGCCCTCCGTCCTTATTACTTCAAGTCCCTGGGGTACCCGTTTCACTGCCA (double strand) [16-N603-30 +91 CG nucleosome 91 meCpG]
[1]; meCpG at 91
  Kd: 0.0713 µM

## GAGCCACAAAATCACCGACGCCCGGGGGTGCCCAGTTCGCGCGCCCACCTACCGTGTGAAGTCGTCACTCGGGCTTCTAAGTACGCTTAGCGCACGGTAGAGCGCAATCCAAGGCTAACCACCGTGCATCGATGTTGAAAGAGGCCCTCCGTCCTTATTACTTCAAGTCCCTGGGGTACCCGTTTCACTGCCA (double strand) [16-N603-30 +81 CG nucleosome 81 meCpG]
[1]; meCpG at 81
  Kd: 0.0655 µM

## GAGCCACAAAATCACCGACGCTCACGGGTGCCCAGTTCGCGCGCCCACCTACCGTGTGAAGTCGTCACTCGGGCTTCTAAGTACGCTTAGCGCACGGTAGAGCGCAATCCAAGGCTAACCACCGTGCATCGATGTTGAAAGAGGCCCTCCGTCCTTATTACTTCAAGTCCCTGGGGTACCCGTTTCACTGCCA (double strand) [16-N603-30 nucleosome 81 meCpA]
[1]; asymmetric meCpA at 81
  Kd: 0.0653 µM
MeCP2 MBD (Homo sapiens); asymmetric meCpA at 81
  Kd: 0.268 µM
